Source: the supplement of paper PMC10567573

B1: CLINT1 (parent)
chain: VVTSAREHIYDLRSLENYHFVDEH

Variants of: B1
Test: protein stability index of a GFP-peptide fusion (GPS, HEK-293T) (PSI 1-6); higher = more stable
Details: c terminus: a fixed tail appended
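Also: lentivirally expressed fusions sorted by FACS into six bins by GFP to DsRed ratio, PSI derived from sequencing read proportions per bin multiplied by bin number.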

Variant | protein stability index
VVTSAREHIYDLRSLENYHFMDEH | 2.54
VVTSAREHIYDLRSLENYHFWDEH | 2.54
VVTSAREHIYDLRSLENYHFLDEH | 2.82
VVTSAREHIYDLRSLENYHFDDEH | 3.74
VVTSAREHIYDLRSLENYHFNDEH | 3.44
VVTSAREHIYDLRSLENYHFRDEH | 2.54
VVTSAREHIYDLRSLENYHFPDEH | 3.38
VVTSAREHIYDLRSLENYHFTDEH | 2.84
VVTSAREHIYDLRSLENYHFCDEH | 2.78
VVTSAREHIYDLRSLENYHFYDEH | 2.47
VVTSAREHIYDLRSLENYHFFDEH | 2.48
VVTSAREHIYDLRSLENYHFGDEH | 3.49
VVTSAREHIYDLRSLENYHFSDEH | 2.96
VVTSAREHIYDLRSLENYHFHDEH | 2.98
VVTSAREHIYDLRSLENYHFKDEH | 2.53
VVTSAREHIYDLRSLENYHFEDEH | 3.79
VVTSAREHIYDLRSLENYHFQDEH | 3.25
VVTSAREHIYDLRSLENYHFADEH | 3.44
VVTSAREHIYDLRSLENYHFIDEH | 2.52
VVTSAREHIYDLRSLENYHSVDEH | 3.79
VVTSAREHIYDLRSLENYHYVDEH | 3.24
VVTSAREHIYDLRSLENYHCVDEH | 3.46
VVTSAREHIYDLRSLENYHTVDEH | 2.99
VVTSAREHIYDLRSLENYHPVDEH | 3.96

Variant | protein stability index
VVTSAREHIYDLRSLENYHIVDEH | 3.43
VVTSAREHIYDLRSLENYHHVDEH | 3.57
VVTSAREHIYDLRSLENYHRVDEH | 3.24
VVTSAREHIYDLRSLENYHEVDEH | 3.97
VVTSAREHIYDLRSLENYHKVDEH | 3.33
VVTSAREHIYDLRSLENYHVVDEH | 3.71
VVTSAREHIYDLRSLENYHNVDEH | 3.77
VVTSAREHIYDLRSLENYHGVDEH | 3.54
VVTSAREHIYDLRSLENYHMVDEH | 3.26
VVTSAREHIYDLRSLENYHWVDEH | 2.58
VVTSAREHIYDLRSLENYHAVDEH | 4.11
VVTSAREHIYDLRSLENYHDVDEH | 4.77
VVTSAREHIYDLRSLENYHLVDEH | 4.22
VVTSAREHIYDLRSLENYHQVDEH | 3.73
VVTSAREHIYDLRSLEYYHFVDEH | 1.97
VVTSAREHIYDLRSLEWYHFVDEH | 1.96
VVTSAREHIYDLRSLENDHFVDEH | 4.14
VVTSAREHIYDLRSLENVHFVDEH | 3.24
VVTSAREHIYDLRSLENTHFVDEH | 3.94
VVTSAREHIYDLRSLENAHFVDEH | 3.65
VVTSAREHIYDLRSLENNHFVDEH | 4.48
VVTSAREHIYDLRSLENQHFVDEH | 3.87
VVTSAREHIYDLRSLENSHFVDEH | 4.05
VVTSAREHIYDLRSLENHHFVDEH | 3.59

Variant | protein stability index
VVTSAREHIYDLRSLENPHFVDEH | 3.71
VVTSAREHIYDLRSLENLHFVDEH | 2.94
VVTSAREHIYDLRSLENEHFVDEH | 4.26
VVTSAREHIYDLRSLENKHFVDEH | 3.6
VVTSAREHIYDLRSLENFHFVDEH | 2.5
VVTSAREHIYDLRSLENWHFVDEH | 2.94
VVTSAREHIYDLRSLENMHFVDEH | 2.88
VVTSAREHIYDLRSLENCHFVDEH | 3.3
VVTSAREHIYDLRSLENRHFVDEH | 3.72
VVTSAREHIYDLRSLENGHFVDEH | 3.78
VVTSAREHIYDLRSLENIHFVDEH | 3
VVTSAREHIYDLRSLENYFFVDEH | 2.26
VVTSAREHIYDLRSLENYYFVDEH | 2.55
VVTSAREHIYDLRSLENYMFVDEH | 2.4
VVTSAREHIYDLRSLENYGFVDEH | 3.16
VVTSAREHIYDLRSLENYQFVDEH | 3.12
VVTSAREHIYDLRSLENYCFVDEH | 2.33
VVTSAREHIYDLRSLENYRFVDEH | 3.52
VVTSAREHIYDLRSLENYIFVDEH | 2.41
VVTSAREHIYDLRSLENYDFVDEH | 3.99
VVTSAREHIYDLRSLENYNFVDEH | 3.09
VVTSAREHIYDLRSLENYLFVDEH | 2.68
VVTSAREHIYDLRSLENYAFVDEH | 2.03
VVTSAREHIYDLRSLENYVFVDEH | 2.11

Variant | protein stability index
VVTSAREHIYDLRSLENYSFVDEH | 3.21
VVTSAREHIYDLRSLENYTFVDEH | 3.28
VVTSAREHIYDLRSLENYWFVDEH | 1.6
VVTSAREHIYDLRSLENYEFVDEH | 3.8
VVTSAREHIYDLRSLENYKFVDEH | 4.3
VVTSAREHIYDLRSLENYPFVDEH | 3
VVTSAREHIYDLRSLENYHFVSEH | 2.31
VVTSAREHIYDLRSLENYHFVIEH | 1.09
VVTSAREHIYDLRSLENYHFVLEH | 1.57
VVTSAREHIYDLRSLENYHFVFEH | 2.2
VVTSAREHIYDLRSLENYHFVNEH | 2.35
VVTSAREHIYDLRSLENYHFVPEH | 2.58
VVTSAREHIYDLRSLENYHFVKEH | 2.49
VVTSAREHIYDLRSLENYHFVTEH | 1.75
VVTSAREHIYDLRSLENYHFVGEH | 2.85
VVTSAREHIYDLRSLENYHFVMEH | 1.66
VVTSAREHIYDLRSLENYHFVREH | 2.38
VVTSAREHIYDLRSLENYHFVEEH | 2.42
VVTSAREHIYDLRSLENYHFVCEH | 1.98
VVTSAREHIYDLRSLENYHFVAEH | 2.1
VVTSAREHIYDLRSLENYHFVQEH | 2.59
VVTSAREHIYDLRSLENYHFVHEH | 2.93
